Experimental data reported in publication PMC12463132 (Advanced Science, 2025).
Ends that are not written are not given here.

Biological target: T1, Sec23a/Sec24a (lacking residues 1–340) (human, UniProt Q15436 1-765; O95486 341-1093)
T1 construct: Sec23a, human, full length (pFastBac1 vector); Sec24a, human, lacking residues 1-340; The results call the protein of the pull-downs 'Sec24a' or 'Sec24', the methods 'COPII protein'; also called COPII coat proteins Sec23a/Sec24a; COPII protein; source: Hi5 insect cells (baculovirus made in Sf9), purified (HisTrap, ion exchange, SEC)
Assay: pull-down; competition: phosphorylated GST-STING CTT on glutathione Sepharose 4B beads, IRF3 with Sec24; 20 mM HEPES-Na pH 7.4, 200 mM NaCl, 4 mM DTT, 0.1% Triton X-100, 4 °C; SDS-PAGE
Settings: both partners purified

T1 sequence (Q15436 whole entry, chain 1 of 2, the tested form may be a part): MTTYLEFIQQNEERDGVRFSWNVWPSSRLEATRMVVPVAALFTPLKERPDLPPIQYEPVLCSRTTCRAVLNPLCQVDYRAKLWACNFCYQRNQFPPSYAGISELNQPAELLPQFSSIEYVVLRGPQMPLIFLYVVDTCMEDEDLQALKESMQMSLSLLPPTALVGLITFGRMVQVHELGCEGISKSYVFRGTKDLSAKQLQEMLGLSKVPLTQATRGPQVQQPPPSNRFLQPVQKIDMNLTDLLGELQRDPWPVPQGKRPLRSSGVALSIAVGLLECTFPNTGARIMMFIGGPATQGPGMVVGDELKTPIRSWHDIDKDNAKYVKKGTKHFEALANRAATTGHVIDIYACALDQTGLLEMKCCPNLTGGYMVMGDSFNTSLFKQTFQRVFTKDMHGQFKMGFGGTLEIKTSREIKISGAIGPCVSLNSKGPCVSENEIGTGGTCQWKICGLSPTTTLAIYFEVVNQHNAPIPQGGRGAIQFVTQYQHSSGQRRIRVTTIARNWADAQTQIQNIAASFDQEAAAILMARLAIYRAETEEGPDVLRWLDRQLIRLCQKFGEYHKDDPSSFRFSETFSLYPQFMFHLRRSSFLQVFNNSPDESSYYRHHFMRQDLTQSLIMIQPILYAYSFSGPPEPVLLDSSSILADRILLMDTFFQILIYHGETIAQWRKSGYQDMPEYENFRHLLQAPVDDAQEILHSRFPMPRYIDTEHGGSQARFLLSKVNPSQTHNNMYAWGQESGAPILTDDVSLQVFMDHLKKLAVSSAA
T1 sequence (O95486 341-1093, chain 2 of 2): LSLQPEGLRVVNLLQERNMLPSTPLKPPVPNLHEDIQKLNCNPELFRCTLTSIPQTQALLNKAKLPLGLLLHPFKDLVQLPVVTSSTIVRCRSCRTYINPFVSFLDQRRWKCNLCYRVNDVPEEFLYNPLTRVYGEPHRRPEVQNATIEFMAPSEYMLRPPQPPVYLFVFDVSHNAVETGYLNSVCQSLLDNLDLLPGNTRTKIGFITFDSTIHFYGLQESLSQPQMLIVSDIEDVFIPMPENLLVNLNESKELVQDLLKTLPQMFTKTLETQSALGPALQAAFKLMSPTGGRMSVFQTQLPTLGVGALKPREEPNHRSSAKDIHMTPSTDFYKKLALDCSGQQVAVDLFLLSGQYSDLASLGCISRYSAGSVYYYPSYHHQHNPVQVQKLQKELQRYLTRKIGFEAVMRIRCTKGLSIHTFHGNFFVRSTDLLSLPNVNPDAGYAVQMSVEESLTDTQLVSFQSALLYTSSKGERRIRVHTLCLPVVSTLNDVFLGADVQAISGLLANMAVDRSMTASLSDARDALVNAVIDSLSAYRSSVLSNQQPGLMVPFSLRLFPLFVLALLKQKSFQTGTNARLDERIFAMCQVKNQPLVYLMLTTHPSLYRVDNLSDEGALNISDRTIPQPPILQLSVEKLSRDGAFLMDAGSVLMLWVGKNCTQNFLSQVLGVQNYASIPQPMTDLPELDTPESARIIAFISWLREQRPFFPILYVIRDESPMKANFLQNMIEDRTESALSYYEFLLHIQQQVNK

B1: GST‐tagged human STING CTT (residue number: 335–379), phosphorylated (domain or fragment, UniProt Q86WV6 335-379, looked up)
chain: QEEKEEVTVGSLKTSAVPSTSTMSQEPELLISGMEKPLPLRTDFS
modifications: also: GST-tagged, phosphorylated by TBK1, sites not given here
notes: STING, human, C-terminal tail, residues 335-379; also called phosphorylated STING CTT; phosphorylated GST‐STING protein; source: phosphorylated in vitro by GST-tagged human TBK1, used directly; not shown: GST, N-terminal, kept
- binding result: binds
